Assay results as given in US20200255503A1.
Where a chain is given by its changes, count along the chain named. Blank lines part the entries; values can stand above or below the binder they belong to.

Molecular target: natural Fel d1 (cat (Felis domesticus)) (UniProt P30438)
Experiment: SPR, mAb captured, nFel d1 injected, 25 C

Kd: 35.4 nM | koff: 0.00713 s⁻¹ | kon: 202000 M⁻¹ s⁻¹ | t1/2: 2 min
B1: H4H2797P (antibody, human IgG4, V domains shown)
VH: QVQLVESGGGVVLPGRSLRLSCAASGFTFSSYLMYWVRQAPGKGLEWVAVIWYDGSNKFYGDSVKGRFTISRDNSKNTLYLQMNSLRAEDTAVYYCARDNGNSGYEDSWNAFDIWGQGTMVTVSS
VL: DIQMTQSPSSLSASVGDRVTITCRASQDIYNYLAWFQQKPGKAPKSLIYAASSLQTGVPSQFSGSGSGTDFTLTISSLQPEDFATYYCQQYNNYPFTFGPGTKVDIK

Kd: 1.4 nM | koff: 0.000353 s⁻¹ | kon: 253000 M⁻¹ s⁻¹ | t1/2: 33 min
B2: H2M1233N (antibody, mouse IgG2, V domains shown)
VH: QVVLVESGGGVVQPGRSLRLSCAASGFTFSSYGMHWVRQAPGKGLEWVAVIWYDGSNKYYVDSVKGRFTISRDNSNNTIYLQMNSLRAEDTAVYYCARSLIPVAGTDPIFGYWGQGTLVTVSS
VL: DIQMTQSPSTLSASVGDRVTITCRASQSVSSWLAWYQQKPGKAPKLLIFKASGLESGVPFRFSGSGSGTEFTLTISSLQPDDFATYYCQQYNTYSPTFGQGTKVEIK

Kd: 0.307 nM | koff: 0.00091 s⁻¹ | kon: 2.97e+06 M⁻¹ s⁻¹ | t1/2: 13 min
B7: H4H2607B (antibody, human IgG4, V domains shown)
VH: EVQLVESGGGLVKPGGSLRLSCAASGFTFSDYYMNWIRQAPGKGLEWISYLSSSGSATYYADSVKGRFTISRDNAKNSLYLQMNSLRAEDTAVYYCARDGKYNTVAGDYWGQGTTVTVSS
VL: DIQLTQSPSSLSASVGDRVTITCRASQGIRNDLGWYQQKPGKAPKRLIYAASSLQSGVPSRFSGSGSGTEFTLTISSLQPEDFATYYCLQHNSYPYTFGQGTKVEIKR

Kd: 0.641 nM | koff: 0.000728 s⁻¹ | kon: 1.14e+06 M⁻¹ s⁻¹ | t1/2: 16 min
B8: H4H2592B (antibody, human IgG4, V domains shown)
VH: B7 VH with E1Q, L51I, A57T, Y80F, A88G, K101R
VL: EIVMTQSPDFQSVAPKEKVTITCRASQNIGGSLHWYQQKPDQSPKLLIKYASQSFSGVPSRFSGSGSGTDFTLTINSLEAEDAATYYCLQSYTLRTFGQGTKVEIKR

Kd: 3.63 nM | koff: 0.000662 s⁻¹ | kon: 182000 M⁻¹ s⁻¹ | t1/2: 17 min
B13: H1M1241N (antibody, V domains shown)
VH: EVQLVESGGGLVKPGGSLRLSCAASGFTFSSYSMNWVRQAPGKGLEWVSSISSRSSYIYYADSVKGRFTISRDNAKNSLYLQMNSLRAEDTAVYYCARDHIVVVPGASYYYYGMDVWGQGTTVTVSS
VL: DIQMTQSPSSLSASVGDRVTITCRASQGIRNDLGWYQQKPGKAPKRLISAASSLQSGVPSRFSGSGSGTEFTLTISSLQPEDFATYYCLQHNSYPLTFGGGTKVEIK

Second part, the binder before the results:

B3: H2M1237N (antibody, mouse IgG2, V domains shown)
VH: B2 VH with N57I, V61A, S99A
VL: B2 VL with A51T
Kd: 0.982 nM | koff: 0.000276 s⁻¹ | kon: 281000 M⁻¹ s⁻¹ | t1/2: 42 min

B4: H2M1242N (antibody, mouse IgG2, V domains shown)
VH: EVQLVESGGGLVRPGGSLRLSCAASGFTFTSYAMNWVRQAPGKGLEWVSSISSYSSYIYIADSVKGRFTLSRDNAKNSLYLQMHSLRPEDTAVYFCAREGYSAYSYFDFWGRGTLVTVSS
VL: B2 VL with S30I, F49H, K50R, G53S, F60S, S77G, S95F, I106V
Kd: 3.14 nM | koff: 0.000604 s⁻¹ | kon: 192000 M⁻¹ s⁻¹ | t1/2: 19 min

B5: H2M1236N (antibody, mouse IgG2, V domains shown)
VH: QVQLQESGPGLVKPSETLSLTCTVSGGSISNYYWSWIRQPPGKGLEWIGYIYYSGRTNYNPSLKSRVTISVDTSKNQFSLKLRSVTAADTAVYYCARHRITRTADSFDYWGQGTLVTVSS
VL: DIQMTQSPSSLSASVGDRVTITCQASQDITNYLNWYQQKPGKAPKLLIYDASNLETGVPSRFSGSGSGTDFTFTISSLQPEDVATFYCHQYGDLPYTFGQGTKLEIK
Kd: 4.55 nM | koff: 0.00142 s⁻¹ | kon: 312000 M⁻¹ s⁻¹ | t1/2: 8 min

B6: H4H2590S (antibody, human IgG4, V domains shown)
VH: B7 VH with E1Q, L51I, S54G, A57T, V105S, A106P, T115L
VL: EIVLTQSPDFQSVTPKEKVTITCRASQSIGSSLHWYQQKPDQSPKLLIKYASQSFSGVPSRFSGSGSGTDFTLTINSLEAEDAATYYCLQSSSLRTFGQGTKVDIK
Kd: 0.655 nM | koff: 0.000802 s⁻¹ | kon: 1.23e+06 M⁻¹ s⁻¹ | t1/2: 14 min

B9: H4H2608B (antibody, human IgG4, V domains shown)
VH: B7 VH with L51I, G55D, S56D, A57T, Y109H, T115L
VL: B8 VL with G31S
Kd: 2.05 nM | koff: 0.00106 s⁻¹ | kon: 516000 M⁻¹ s⁻¹ | t1/2: 11 min

B10: H4H2597B (antibody, human IgG4, V domains shown)
VH: EVQLVESGGGLVQPGGSLRLSCAVSGFTFSNYAMNWVRQAPGKGLEWVSVISDSGRSTYYADSVKGRFTISRDNSKNTLYLQMNSLRAEDTAVYFCAKRYNWNLHYFDYWGQGTTVTVSS
VL: B8 VL with M4L, A14T, N28S, Y92S, T93S
Kd: 0.65 nM | koff: 0.0015 s⁻¹ | kon: 2.31e+06 M⁻¹ s⁻¹ | t1/2: 8 min

B11: H4H2606B (antibody, human IgG4, V domains shown)
VH: EVQLVESGGGLVKPGGSLRLSCAASGFTFSDYYMNWIRQAPGKGLEWVSYISSSGNSIYYADSVKGRFTISRDNAKNSLFLQMSSLRAEDTAVYYCARDGRYNDRRRGYYWGQGTLVTVSS
VL: B8 VL with A14T, N28S, G31S, Y92S, T93S
Kd: 0.765 nM | koff: 0.000707 s⁻¹ | kon: 924000 M⁻¹ s⁻¹ | t1/2: 16 min

B12: H1M1230N (antibody, V domains shown)
VH: EVQLVESGGGLVQPGGSLRLSCTASGFIFSNFWMTWVRQAPGKGLEWVANIKQDGSETYCVDSVKGRFTISRDHAKNSLFLQMNSLRAEDTAVYYCARGAGTIYYYGMDVWGQGTTVIVSS
VL: DIQMTQSPSSVSASVGDRLTITCRASQDISSWLTWYQQKPGKAPNLLIYAASGLQSGVPSRFSGSGSGTDFTLTISNLQPEDFATYYCQQANSFPLTFGQGTRLEIK
Kd: 3.37 nM | koff: 0.000869 s⁻¹ | kon: 258000 M⁻¹ s⁻¹ | t1/2: 13 min
